Measurements reported in patent publication US20250121076A1, “POLYPEPTIDE DRUG CONJUGATE HAVING NOVEL STRUCTURE AND APPLICATION THEREOF” (MEDSHINE DISCOVERY INC., priority 2021, published 2025).
Counter-ions that a name gives are not always drawn. Starred links: 1 amine or outer side, 2 acyl side, 3 side chain; linkers in the order of their positions; H or OH if unused. Positions of bridges follow the written chain, without caps; N, C: chain ends. Non-standard residues stand in square brackets, D forms with d. Residues, ends and D or L forms follow the SMILES beside them. Chains are numbered I, II in the order given. *: point of attachment. TATA = O=C(CC[*:1])N1CN(C(=O)CC[*:2])CN(C(=O)CC[*:3])C1; Dolaproine = CO[C@@H]([C@@H]1CCCN1)[C@@H](C)C(=O)O; Dil = CC[C@H](C)[C@H](NC)[C@@H](CC(=O)O)OC; X2 = O=C(CCCC(=O)[*:2])NCCC(=O)[*:1]; PABC = O=C(OCc1ccc(N[*:1])cc1)[*:2]; X1 = C[C@@H](N*)[C@@H](O)c1ccccc1; Hyp = O=C(O)[C@@H]1C[C@@H](O)CN1; hArg = N=C(N)NCCCC[C@H](N)C(=O)O; Cit = NC(=O)NCCC[C@H](N)C(=O)O; Pen = CC(C)(S)[C@H](N)C(=O)O; NMeV = CN[C@H](C(=O)O)C(C)C; Sar = CNCC(=O)O

Experiments:
[1] = Stability in whole blood; assay type: in vitro ADME, Cynomolgus macaques; settings: Cynomolgus macaque whole blood, 2 μM, 37° C.
Experimental: (§1) To test the stability of the compounds of the present invention in whole blood from SD rats and Cynomolgus macaques.
(§2) The corresponding incubation plates, including T0, T10, T30, T60, T120, and T240 incubation plates, were added with a 2 μL working solution of the compound to be tested (100 μM). Three parallel wells were prepared for each sample. Then, 98 μL of blank whole blood from SD rats and Cynomolgus macaques was added to the corresponding incubation plates to which the working solution had been added. All samples were incubated in a 37° C. water bath. […] At the end of each incubation time point, the corresponding incubation plate was removed, added with stop buffer, precipitated, and centrifuged for 20 minutes. Then, 100 μL of the supernatant was diluted with 300 μL of ultrapure water, mixed uniformly, and then analyzed by the LC-MS/MS method. The concentration of the compound to be tested in the sample was semi-quantitatively determined by the liquid chromatography-tandem mass spectrometry (LC-MS/MS) method.

[2] = Stability in plasma; assay type: in vitro ADME, SD rats; settings: SD rat plasma, 2 μM, 37° C., up to 240 min
Experimental: To test the stability of the compounds of the present invention in plasma from rats, Cynomolgus macaques, and humans.
as §2, with “blank plasma” for “blank whole blood”, “SD rats, Cynomolgus macaques,” for “SD rats”, “and humans” for “and Cynomolgus macaques”, “Then, 150” for “Then, 100”, “was” for “was diluted with 300 μL of ultrapure water, mixed uniformly, and then”

[3] = Pharmacokinetic analysis in rat plasma (6.1, 2 mg/kg); assay type: in vivo, SD rats; settings: rat, in vivo, SD rats, single IV 2 mg/kg, plasma
Experimental: Experimental purpose: To test the pharmacokinetics of the compounds of the present invention in SD rats.
6.1 The pharmacokinetic characteristics of the compound after intravenous injection and oral administration were tested in rats according to a standard protocol. The compound to be tested was formulated into a clear solution using 50 mM acetate buffer (pH=5) in 10% sucrose as a vehicle. Two SD rats were given a single intravenous injection of 2 mg/kg of the compound to be tested. Whole blood was collected at time points of 0.083, 0.25, 0.5, 1, 2, 4, 8, and 24 hours after administration to get plasma. The concentration of the compound to be tested and the concentration of its potential metabolite MMAE were analyzed by the LC-MS/MS method, and the pharmacokinetic parameters were calculated by Phoenix WinNonlin software.

[4] = Metabolic stability in hepatocytes; assay type: in vitro ADME, Humans; settings: human hepatocytes, 1 μM, 0.5×10^6 cells/mL
Experimental: To investigate the metabolic stability of the compounds of the present invention in hepatocytes from Cynomolgus macaques and humans.
Incubations were performed in 96-well plates using an external extraction method. Several 96-well sample precipitation plates, designated T0, T15, T30, T60, T90, T0-MC, T90-MC, and blank matrix, were prepared, respectively. The recovery culture medium and incubation culture medium were removed in advance and placed in a 37° C. water bath for preheating. Frozen hepatocytes from Cynomolgus macaques and humans were removed from a liquid nitrogen tank, recovered, and diluted to 0.51×10^6 cells/mL with the incubation culture medium. […]
At the end of the incubation at the corresponding time point, the incubation plates were removed, from which 25 μL of a compound mixture with the cells was removed and added to sample plates containing 125 μL of stop buffer. […] All samples were mixed uniformly and then analyzed by the LC-MS/MS method.
The concentration of the compound of the present invention in the sample was semi-quantitatively determined by the liquid chromatography-tandem mass spectrometry (LC-MS/MS) method without a standard curve and quality control sample. […]

[5] = Stability in whole blood; assay type: in vitro ADME, SD rats; settings: SD rat whole blood, 2 μM, 37° C.
Experimental: as §1, §2

[6] = Stability incubated in human plasma for 72 hours; assay type: in vitro ADME, Humans
Experimental: as §2, with “blank plasma” for “blank whole blood”, “SD rats, Cynomolgus macaques,” for “SD rats”, “and humans” for “and Cynomolgus macaques”, “Then, 150” for “Then, 100”, “was” for “was diluted with 300 μL of ultrapure water, mixed uniformly, and then”
The experimental results obtained using the above method but extending the incubation time of the compound to be tested with human plasma to 72 hours are shown in Table 22.

In the case of CC[C@H](C)[C@@H]([C@@H](CC(=O)N1CCC[C@H]1[C@H](OC)[C@@H](C)C(=O)N[C@H](C)[C@@H](O)c1ccccc1)OC)N(C)C(=O)[C@@H](NC(=O)[C@H](C(C)C)N(C)C(=O)OCc1ccc(NC(=O)[C@H](CCCNC(N)=O)NC(=O)[C@@H](NC(=O)CCCC(=O)NCCC(=O)N(C)CC(=O)N(C)CC(=O)N(C)CC(=O)N(C)CC(=O)N(C)CC(=O)N(C)CC(=O)N(C)CC(=O)N(C)CC(=O)N(C)CC(=O)N(C)CC(=O)N[C@H]2CCCCNC(=O)C[C@@H](C(=O)N[C@H]3CSCCC(=O)N4CN5CN(C4)C(=O)CCSC(C)(C)[C@@H](C(N)=O)NC(=O)[C@H](CCCCNC(=N)N)NC(=O)[C@H](Cc4c[nH]c6ccccc46)NC(=O)[C@@H](CC(=O)O)NC(=O)[C@@H]4CCCN4C(=O)[C@H](Cc4c[nH]cn4)NC(=O)[C@H](CC(C)C)NC(=O)[C@H](CSCCC5=O)NC(=O)[C@H](CC(C)C)NC(=O)[C@@H]4CCCN4C(=O)[C@H](CC(N)=O)NC(=O)[C@H](C(C)C)NC(=O)[C@H](CC(C)C)NC(=O)[C@@H]4C[C@@H](O)CN4C3=O)NC(=O)[C@H](CCCCNC(=N)N)NC2=O)C(C)C)cc1)C(C)C [Acetate salt of PDC_8] (I: [Sar][Sar][Sar][Sar][Sar][Sar][Sar][Sar][Sar][Sar]K[hArg]DC[Hyp]LVNPLCLHP[dD]W[hArg][Pen]-NH2 / II: V[Cit][PABC][NMeV]V[Dil][Dolaproine]-X1; lactam I:11-I:13; linker I:14-I:21-I:28 via TATA; linker I:N-II:N via X2), the half-life [1] is reported as greater than 9.63 h, the half-life [2] is reported as greater than 9.63 h and the AUC(0-t) [3] is reported as 0.518 µM·h. For the same compound, the C0 [3] was 1670 nM, the clearance [3] was 14.4 mL/min/kg and the half-life [3] was 0.29 h. The Vd ([3]; read-out: Vdss) was 0.28 L/kg, the half-life [4] was greater than 3.61 h and the CLint scaled ([4]; read-out: CLint (liver)) was less than 17.8 mL/min/kg. For the same compound, the half-life [5] was 9.31 h, the MMAE generation % ([6]; test time point 0) was 0.1% and the PDC_8 remaining % ([6]; test time point 0) was 100.0%. It also gave an MMAE generation % ([6]; test time point 0.5) of 0.2%, a remaining at 0.5 h, 2 µM ([6]; test time point 0.5, read-out: PDC_8 remaining %) of 96.3% and an MMAE generation % ([6]; test time point 1) of 0.5%. For the same compound, the remaining at 1 h, 2 µM ([6]; test time point 1, read-out: PDC_8 remaining %) was 103%, the MMAE generation % ([6]; test time point 2) was 0.5% and the remaining at 2 h, 2 µM ([6]; test time point 2, read-out: PDC_8 remaining %) was 86.6%. For the same compound, the MMAE generation % ([6]; test time point 4) was 0.6%, the remaining at 4 h, 2 µM ([6]; test time point 4, read-out: PDC_8 remaining %) was 101% and the MMAE generation % ([6]; test time point 24) was 0.6%. It also gave a remaining at 24 h, 2 µM ([6]; test time point 24, read-out: PDC_8 remaining %) of 89.9%, an MMAE generation % ([6]; test time point 48) of 0.0% and a remaining at 48 h, 2 µM ([6]; test time point 48, read-out: PDC_8 remaining %) of 96%. For the same compound, the MMAE generation % ([6]; test time point 72) was 3.2% and the remaining at 72 h, 2 µM ([6]; test time point 72, read-out: PDC_8 remaining %) was 78%.
